Values of other authors in article PMC12731121.

Key:
[1] = biological target: D-dopachrome tautomerase (MIF-2) (Homo sapiens) (UniProt P30046)
[2] = biological target: MIF (Homo sapiens) (UniProt P14174)
[3] = biological target: Cathepsin L (Homo sapiens) (UniProt P07711)
[4] = biological target: Cathepsin H (Homo sapiens) (UniProt P09668)
[5] = biological target: Cathepsin S (Homo sapiens) (UniProt P25774)
Cathepsin S (Homo sapiens), sequence (P25774 115-331): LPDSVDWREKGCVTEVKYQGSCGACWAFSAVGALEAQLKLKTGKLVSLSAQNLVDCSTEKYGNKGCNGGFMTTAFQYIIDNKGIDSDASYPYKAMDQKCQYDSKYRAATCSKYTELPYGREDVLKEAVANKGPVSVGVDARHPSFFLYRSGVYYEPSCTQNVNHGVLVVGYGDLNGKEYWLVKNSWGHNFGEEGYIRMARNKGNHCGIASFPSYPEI

CD74 p41 thyropin domain, sequence (P04233 210-271): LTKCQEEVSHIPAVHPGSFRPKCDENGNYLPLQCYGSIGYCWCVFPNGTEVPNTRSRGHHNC
CD74, sequence (P04233 73-296): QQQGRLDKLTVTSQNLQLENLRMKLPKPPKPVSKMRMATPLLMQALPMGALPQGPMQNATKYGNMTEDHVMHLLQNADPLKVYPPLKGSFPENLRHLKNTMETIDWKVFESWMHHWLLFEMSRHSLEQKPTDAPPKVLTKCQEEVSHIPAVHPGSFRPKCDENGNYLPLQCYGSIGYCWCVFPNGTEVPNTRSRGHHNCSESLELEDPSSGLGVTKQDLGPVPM
D-dopachrome tautomerase (MIF-2) (Homo sapiens), sequence (P30046 2-118): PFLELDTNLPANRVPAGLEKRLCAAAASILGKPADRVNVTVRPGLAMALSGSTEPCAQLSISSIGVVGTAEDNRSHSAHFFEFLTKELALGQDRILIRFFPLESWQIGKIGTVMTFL
Cathepsin H (Homo sapiens), sequence (P09668 whole entry, looked up): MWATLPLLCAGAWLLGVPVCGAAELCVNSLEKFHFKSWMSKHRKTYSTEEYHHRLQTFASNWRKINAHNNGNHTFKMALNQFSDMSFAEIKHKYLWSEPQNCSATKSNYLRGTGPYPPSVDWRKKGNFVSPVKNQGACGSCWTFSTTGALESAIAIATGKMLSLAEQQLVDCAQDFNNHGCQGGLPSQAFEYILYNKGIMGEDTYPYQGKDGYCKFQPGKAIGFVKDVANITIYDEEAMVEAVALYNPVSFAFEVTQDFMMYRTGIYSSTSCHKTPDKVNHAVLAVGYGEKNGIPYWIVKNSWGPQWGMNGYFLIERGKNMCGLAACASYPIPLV
MIF (Homo sapiens), sequence (P14174 2-115): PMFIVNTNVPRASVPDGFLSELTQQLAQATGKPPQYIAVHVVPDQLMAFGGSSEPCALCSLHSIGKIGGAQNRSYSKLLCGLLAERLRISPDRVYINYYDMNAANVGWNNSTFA
Cathepsin L (Homo sapiens), sequence (P07711 292-333): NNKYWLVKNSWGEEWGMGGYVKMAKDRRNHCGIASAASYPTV

| Kd [1] [nM] | Kd [2] [nM] | Ki [3] [nM] | Ki [4] [nM] | Ki [5] [nM] | Substance |
| --- | --- | --- | --- | --- | --- |
| 5.4 | 1.4 | – | – | – | CD74 (from UniProt P04233) |
| – | – | 0.0017 | 5.3 | 208 | CD74 p41 thyropin domain (from UniProt P04233) |
